A word on the stoichiometry N: it is the number of molecules, sites or subunits per partner or assembly.

This passage reports stoichiometry N results from PMC4813486.

Where “and” joins values, the source holds several entries; their conditions need not be identical. Identical values can stand only once.

The target in test [1] is full-length β2-microglobulin (UniProt P61769). As to the kind of experiment: cross-linking; BS3-d0/d4 1:1, 25 °C, 1 h; gel electrophoresis (NuPAGE); bands digested in-gel with trypsin; LC-MS/MS.
For test [2] the target is unchanged. Briefly: native MS; ion mobility MS, 30 μM protein, 100 mM ammonium acetate, pH 5 (data not shown).
Test [3] has the same target. As to the kind of experiment: native MS; ion mobility MS, 15 μM protein, 100 mM ammonium acetate, pH 5.

With “full-length β2-microglobulin (from UniProt P61769 21-119) (natural protein)”, the stoichiometry N in test [1] was 2 and 3 and 4; in test [2] it was 3 and 4; in test [3], 2.
